B1: M4B01 (antibody, V domains shown)
VH: EVQLLESGGGLVQPGGSLRLSCAASGFNFNTYAMSWVRQAPGKGLKWISTISGSGGVKYYADSVKGRFTISRDNSGSILYLQMNRLRADDTAVYYCAKSQNPQLVFFDSFDMWGQGSMVTVSS
VL: QSVLTQAPSASAAPGQKVTISCSGSTSNIGNSYVSWYQQVPGTAPKLLIYEDNQRPSGIPDRFSGSKSGTSATLGITGLQTGDEADYYCGTWDNSLTEVVFGGGTKLTVL
B2: M3D09 (antibody, V domains shown)
VH: QVQLVESGGGVVQSGKSLGLSCIASGFIFSNYALHWVRQAPGKGLEWLSVISYDGTNKYYANSVRGRFTVSRDNSKNTLFLHMNSLGVDDTAMYYCARDPERLADLGRMDFWGRGTLVAVLS
VL: DIVMTQSPDSLAVSLGERATINCKSSQSVLFSPNNKNYLAWYQQKPGQPPKLLIYWASTREYGVPERFSGSGSGTDFTLTISSLQAEDVAVYYCQQYNSNPYTFGQGTKLEIR
B3: M3D06 (antibody, V domains shown)
VH: EVQLVESGGGLVQPGGSLRLSCAASGFPFNFYWMHWVRQAPREGLVWVSRINNDGSSPNYADSVWGRFTISRDNAKNTLYLQMHSLRAEDTAVYYCARAARFGDYVDQWGQGTLVTVSS
VL: AIQLTQSPSSLSASMGDRVTITCRASQGISSAFAWYQQKPGKAPKLLIYDASTLESGVPSRFSGSGSGTDFTLTISSLQPEDFATYYCQQFNSYPLTFGGGTKVEIK
B4: M4B04 (antibody, V domains shown)
VH: QVQLVESGGGVVQPGKSLRLSCAASGFTFRSYTMFWVRQAPGKGLEWVAIILHDGTNRYYTDSVKGRFTISRDNTKNTVYLQMNSLRPEDTAMYYCARESLEWMLDWGQGTLVTVSS
VL: EIVMTQSPATLSVSPGERATLSCRASQSLSGNLAWFQQKPGQAPRLLIYGTSTRATGIPARFSGSGSGTEFTLTISSLQSEDFAVYYCQQYNNWPPVFTFGPGTKVDIK
B5: M2E06 (antibody, V domains shown)
VH: EVQLVESGGDLVQPGGSLRLSCEASAFTFSDYAMTWVRQAPGKGLEWVSSINTSGGRTYYADSVKGRFTISRDNSKNTLYLQMKSLRAEDTAVYFCARFFYVMDVWGQGTTVTVSS
VL: AIQMTQSPSSLSASVGDRVTITCRASQGVRNDLGWYQQKPGKAPKLLINAASGLQSGVPSRFSGSGSDTDFTLTISSLQPEDFATYYCLQVYSYPFTFGPGTKVDIK
B6: M1C11 (antibody, V domains shown)
VH: QVQLVQSGAEMKKPGSSVKVSCKTSGGSFSSYPVSWVRQAPGQGPEWMGGIIPLSGTTHYAQMFQGRVSITADDSTRTVFMELTSLRSGDTAVYYCARSGAPTYYYDSSGFHGGAFHFWGQGTVVTVSS
VL: DIVMTQSPDSLAVSLGERATINCKSSQSVLYSSNSKSYLAWYQQKPGQPPKLLIYWASSRESGVPDRFSGSGSGTDFTLTISSLQAEDVAVYYCQQFYTSPHTFGQGTKLEIKR
B7: M3D12 (antibody, V domains shown)
VH: QVQLQESGPGLVKPSQTLSLTCTVSGASVSSEYYYWSWIRQPPGKGLEWIGYIYHNGDTYYNPSLKGRGIISMDTSKNQFSLKLISVTAADTAVYYCARLAVAGVTGFHYWGLGTLVTVSS
VL: EIVLTQSPDTLSLSPGERATLSCRASRSVRNYLAWYQQKPGQAPRLLIYDASNRAPGIPARFSGSGSETDFTLTISSLEPEDFAVYYCQQRSNWGLTFGGGTKVEIK
B8: M2A09 (antibody, V domains shown)
VH: QVQLVQSGAGVRKPGSSVKVSCKASGGTFSNYIISWVRQAPGQGLEYIGRIIPIVGMEKYEEKFQGRVKITADESTSTVSMELTSLKSEDTATYYCATEGLESGYPPYLEHWGRGTLVIVSS
VL: EIVLTQSPGTLSLSPGERATLSCRTSQTVGAHLAWYQQKPGQSPRLLIYGASSRATGIPDRFSGSGSGTVFTLTINRLEPEDLAVYYCQQYGASPPTFGQGTKVEIK
B9: M2D10 (antibody, V domains shown)
VH: QVQLVQSGAEVKKPGASVRISCKPSGRAFLTYDINWVRQAPGQGLEWMAGMNPGSGNAAYAPKFQGRLTMIRNTSISTDYLELSSLTSEDTAVYYCARGEVSMRWRWLDPWGQGSLVTVTS
VL: DIQMTQSPSSLSASVGDRVTITCRASQTISNFLNWYQQKPGRAPKVLIYAALNLQSGVPSRFRGSGSGTDFTLTINNLQPEDFAIYYCQQSYITPWTFGQGTKVEIK
B10: M2B07 (antibody, V domains shown)
VH: EVQLVESGGGLVRPGGSLRLSCAASGFTFNNYWMHWVRQAPGKGLVWVSHVKSDGSITNYADSVKGRFTISRDNAKNTLYLEMSSLRVEDTAVYYCARESRPYDPLTGSHPDAFDIWGQGTMVTVSS
VL: DIVMTQSPDSLAVSLGERATINCKSSESIFYYSNSKSYLAWYRQKPGQPPKLLIYWASTRESGVPDRFSGSGSGTDFTLTISSLQPEDVAVYYCQQYYTNPRTFGQGTRLEIK
B11: M4C02 (antibody, V domains shown)
VH: QLQLQESGPRLVKPSETLSLTCSVSGGSISSSSLYWGWIRQSPGKGLEWIGTIYYGGSSDYNPSLKSRLTMSVDTSKNHFSLRLSSVTAADTAVYYCARVGSPVTTTVWFDPWGQGTLVTVSS
VL: DIQMTQSPSSLAASIGDRVTITCRASQTISTYLNWYQQKPGKAPKLLIYAASTLQSGVPSRFSGSGSGTDFTLTISSLQPEDFATYYCQQTYSSLALTFGGGTKVEIR
B12: M3E01 (antibody, V domains shown)
VH: EVQLVESGGGLIQPGGSLRLSCTASGFTVSSKYMSWVRQAPGKGLEWVSLIYDGGSTYYADSVKGRFLISRDNAKNTLYLQMHSLRAEDTAVYYCARDRGTYSGYDWYSGMDVWGQGTTVTVSS
VL: DIQLTQSPSFLSASVGDRITITCRASQGISSYLAWYQQKPGKAPKLLIYAASTLQSGVPSRFSGSGSGTEFNVTISSLQPEDFATYYCQQLKSYPGTFGQGTKVEIE
B13: M3E03 (antibody, V domains shown)
VH: QVQLVESGGGVVQPGRSLRLSCVASGFPFDSFAMHWVRQAPGKGLEWVAIVWYDGGDKFYSESVKGRFSISRDNSRNTVFLQMNSLRAEDTAVYYCARGMITFDYWGPGTLVTVSS
VL: EIVLTQSPGTLSLSPGERATLSCRASQNVDSSYLAWYQQKPGQAPRLLMYGASTRVAGIPDRFSGSGSGTDFTLTISRLEPEDFVVYYCQQYGTSPTWTFGQGTKVEIK
B14: M6E10 (antibody, V domains shown)
VH: QVQLVQSGAEVKKPGSSVKVSCNASGGIFDTNVINWVRQAPGQGLEWMGGIIPPFGTALYAHQFQGRLTLTVDESTNTAYMDLSSLRSDDTAVYFCARDRTVIKYADGMDVWGQGTTVTVSS
VL: DIQMTQSPSSLSASVGDKVAITCRASQTISPYLNWYQQKPGKAPNLLIYGTNKLQSGVPLRFSGSGSGTDFTLTINGLQPEDFATYFCQQSHTTPLTFGGGTKVEIKR
B15: M4A12 (antibody, V domains shown)
VH: QLQESGSGPGLVKPSETLSLICNASGDSVTRNAYYWGWLRQPPGKGLEWIGIMYYSGSTFYNPSLKSRLTISVDTSKNQFSLKLRSVTAADTATYYCGEATLTTYDAFDVWGHGTMVTVSS
VL: QSVLTQPPSVSAAPGQRVTISCSGGNSNIGKNYVSWYQQVPGTAPKLLIYENNKRPSGIPDRFSGSKSGTSATLGITGLQTGDEADYYCGAWDSSLNGVLFGGGTRLTVL
B16: M1A12 (antibody, V domains shown)
VH: QVQLVQSGTEVKKPGSSVKVSCKDPGDIMSSHSIHWVRQAPGQGPEWMGRIIPLFGMKSYAPNFQGRVSISVDTSTNTAYLELSGLKSDDTAVYFCAREENLSWLDYWGQGTQVIVSS
VL: EIVLTQSPATLSLSPGDRATLSCRASLRLSTNIAWYQQKPGQAPRLVIYDASKRATGIPARFSGSGSGTDFTLTISSLEPEDFAVYYCHQHSNWYTFGQGTKLEIK
B17: M1A01 (antibody, V domains shown)
VH: QVQLVQSGAEVKKPGSSVKVSCWASGGTFDNAINWLRQAPGQGPEWMGRIIPLVDIVNRAPKFQDRVSFTADKSTNTVYMVLNSLTSDDTAVYYCASAFQDGWFDPWGQGTLVTVSS
VL: EIVLTQSPATLSLSPGERATLSCRASQSLSRYLAWYQQKPGQAPRLLIYDASNRATGVPARFSGSGSGTDFTLTISSLEPEDFAVYYCHQRHNWITFGQGTRLEIK
B18: M4A08 (antibody, V domains shown)
VH: EVQLVESGGALVRPGGSLRVSCEASGFNFRTHWMHWVRQAPGKGLVWVARTNGDGSVTNYADSVKGRFTFFRDNAKNTLFLQMTSLRVDDTAVYYCARERLDYSSTRGHFPGDFDSWGQGTLVTVSS
VL: DIVMTQSPDSLAVSLGERATINCKSSESVLYTSNSKNYLAWYQQKPGHPPKVLIYWASTRESGVPDRFSGSGSGTDFSLSISSLQAEDVAVYYCQQYFTIPRTFGQGTKVEIK
B19: M3C07 (antibody, V domains shown)
VH: QLQLQESGPGLVKPWETLSLTCIVSGGSISRSTHYWGWIRQSPEMGLEWIGSIYYTGNTYYNPSFKSRVTISVDTSRNQLSLRVNSVSAADTARYYCARHETYDYGVFNIWGQGAMVTVSA
VL: EIVLTQSPGTLSLSPGERAILSCRASQTVSSDYLAWYQQRPGQAPRLLIYDASSRATGVPDRFRGSGSGTDFTLTISRLEPEDFGVYYCQQYGSPYTFGQGTKLEIK
B20: M2D07 (antibody, V domains shown)
VH: QVQLVESGGAVVQPGRSLRLSCAASGFTFTSFSMHWVRQAPGRGLEWVAVISHDGIIKYYADSVKGRFTISRDNSKNTVFLQMNSLRPEDTAVFYCARDFPGSRGFFRYYFDHWGQGTLVTVSS
VL: DIQMTQSPSSLSASVGGSVTITCRVDQSISNDLHWYQQKPGKAPKLLISSASSLQSGVPSRFSGSGSGTDFTLTITSLQPEDFATYYCQQSYTTPPLFGQGTTLEIK

What follows are binders tested on F protein of hMPV A virus (human metapneumovirus subtype A) (assay: cell-based or functional assay).

Row | Binder | PRNT IC50 [µg/mL]
1 | B1 | 0.0371
2 | B2 | 2
3 | B3 | > 10
4 | B4 | 4.59
5 | B5 | 0.105
6 | B6 | 5.92
7 | B7 | 0.0231
8 | B8 | 0.0133
9 | B9 | 0.759
10 | B10 | 0.625
11 | B11 | 0.577
12 | B12 | > 10
13 | B13 | 0.0199
14 | B14 | 0.0237
15 | B15 | > 10
16 | B16 | 1.51
17 | B17 | 3.41
18 | B18 | 0.136
19 | B19 | > 10
20 | B20 | 1.07

Each binder was assayed on F protein of hMPV B virus (human metapneumovirus subtype B) (assay: cell-based or functional assay).

Row | Binder | PRNT IC50 [µg/mL]
21 | B1 | 0.0628
22 | B2 | 0.28
23 | B3 | > 10
24 | B4 | 1.97
25 | B5 | 0.139
26 | B6 | 0.444
27 | B7 | 0.0145
28 | B8 | 0.0456
29 | B9 | 1.34
30 | B10 | 0.426
31 | B11 | 0.173
32 | B12 | > 10
33 | B13 | 0.0762
34 | B14 | 0.0104
35 | B15 | 0.0744
36 | B16 | 5
37 | B17 | 4
38 | B18 | 0.344
39 | B19 | > 10
40 | B20 | 2.5

From US20240327502A1
